Patent CN105646705A

Target: 原核表达的重组人GFAP蛋白 (PET28a-GFAP, 大肠杆菌BL21表达, Ni-NTA纯化) (human) (UniProt P14136)
Experiment: direct ELISA, purified GFAP coated at 10 μg/ml, purified antibody diluted 1:200 to 1:12800, goat anti-mouse IgG-HRP, OD450

Sequence of UniProt P14136 (P14136 other isoform, or with tags, fused parts or gaps): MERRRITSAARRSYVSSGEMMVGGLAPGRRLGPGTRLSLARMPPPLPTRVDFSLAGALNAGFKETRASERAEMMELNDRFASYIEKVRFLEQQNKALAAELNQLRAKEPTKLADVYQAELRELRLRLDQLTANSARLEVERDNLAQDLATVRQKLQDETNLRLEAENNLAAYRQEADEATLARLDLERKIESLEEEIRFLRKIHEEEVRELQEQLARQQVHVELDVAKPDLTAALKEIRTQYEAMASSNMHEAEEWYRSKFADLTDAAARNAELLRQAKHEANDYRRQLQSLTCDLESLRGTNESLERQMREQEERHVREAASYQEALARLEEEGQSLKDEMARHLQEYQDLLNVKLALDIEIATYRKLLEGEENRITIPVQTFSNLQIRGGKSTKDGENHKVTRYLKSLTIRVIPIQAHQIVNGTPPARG

B1: 小鼠抗人GFAP单克隆抗体 5C8 (杂交瘤细胞株5C8, CGMCC No.6915) (antibody, part only; not given: light chain variable region, V domains shown, part only)
VH: LASTATGVHSQVQLQQPGAELVRPGASVKLSCKASGYTFTSYWMNWVKQRPGQGLEWIGMINPSDSEIQYNQMFKDKATLTVDKSSSTAYIHLTSLTSEDSAVYYCARGLGRYWGQGTTLTVSPASTTPPSV
- ELISA滴度 (dilution factor (1:x)): > 10000
